Experimental data reported in a protein production outcome set (Wang et al. 2014).

Test: label from the status in PepcDB records

Sequence | protein production
MSDEWKSETPKANDDKSWKLLEKAVLAGVQEQRRARRWGIFFKSLTFIYLFVVLLAFSPFGSLEKSASRSGSHTALIEVKGMIADDEPASADNIVTALRAAFKDEGTKGIVLRINSPGGSPVQSGYIYDEIRRLRGEHPNVKVYAVISDLGASGAYYIASAADQIYADKASLVGSIGVTAASFGFVGTMEKLGVERRVYTSGEHKSFLDPFQPQKPEETQFWQQVLDTTHKQFIDSVKKGRGDRLKVEGHPELFSGLVWSGEQALQLGLIDGLGNASYVAREVVKEKKIEDYTVQESPFDRFAKKFGASVAERLALWMGWQGPVLRLEHHHHHH | failed
MTAEQLIEKYKNPAIIGLGVIVALIAAFVFYKYNQSENNTVAQEEMYKAVFYFEQDSLELALKGDEAKGIRGLQEVADEYSGTKAGKLAAFYTGIIYLKQAKFQESIDYLEKFSSNEGILQARSWAAMGDAYSELNDLENAIKYYKKAADHKGNEQITPTYLMKLGLAYELNNNWKDASDAYDKIITDYPKSQDVADAKKYKAKAQAALSASE | failed
MNTIVVAQLQRQFQDYIVSLYQQGFLDNQFSELRKLQDEGTPDFVAEVVSLFFDDCSKLINTMSISLERPDNVDFKQVDSGVHQLKGSSSSLCFVLSVGARRVKNVCISFKECCDVQNREGYSSNSHTNCDNDIWHRCLRCLQQVDYEYKMLKTKLQDLFNVSFKLCENLLVLLLEKQILQAGGTIPQVDIN | failed
PPNDNIPTPLEKEEKAKEASDNKEKTKETSNSAQNAQNTQASDKTSDNKSTAPKETIKHFTQQLKQEIQEYKPPMSRISMDLFPKELGKVEVIIQKVGKNLKVSVISHNNSLQTFLDNQQDLKNSLNALGFEGVDLSFSQDS | failed
MEEWPALQWSQGTPASGPALQALEEYAFVPRDDESRQGIRTDALLVIRDGRLLYERYAGATGPQTPHLAWSASKSLLAVLLGVAFGEGRFQLQDPAAKFYPPLEAHPDITLADLLHWASGLDWQEDYEYAPLNSSVVAMLYTRGHRDMAAFTVQQAASGPPGQVFRYSSGDSNLLAASLRGMVGEGQYADYPWRALFEPLGITQAVWERDAAGTFVASSYLYLTARDLARIGLLMQRDGRWRDRQLLPKAWVEFCRTPFRGYRANQDVAVAGGHWWLNREVDGAPRPWPDAPADTYAALGHWGQALYVLPAQRLVIVRYGDDRDGSYQHNELLKRVLAAFATPEQPLEHHHHHH | failed
RTAVMIMNGNQLVGFFCLHVGQGPLSYGETEVNTILLRALSVDDRFKHQRVASDALAELPRYLASHYPMIQTILLAVNHANHVAQHLY | failed
VWRQYASRALQELGAGKRAIHDVADLTRGSLRIAVTPTFTSYFIGPLMADFYARYPSITLQLQEMSQEKIEDMLCRDELDVGIAFAPVHSPELEAIPLLTESLALVVAQHHPLAVHEQVALSRLHDEKLVLLSAEFATREQIDHYCEKAGLHPQVVIEANSISAVLELIRRTSLSTLLPAAIATQHDGLKAISLAPPLLERTAVLLRRKNSWQTAAAKAFLHMALDKCAVVGGNESR | not failed
MSKDGLSNDQVSSMKEAFMLFDTDGDGKIAPSELGILMRSLGGNPTESQLKSIITTENLSSPFDFNRFLDLMAKHLKTEPFDRQLRDAFKVLDKEGTGFVAVADLRHILTSIGEKLQPSEFDEWIKEVDVGSDGKIRYEDFIARMVAK | failed
MLFTQALLVTLVGIIATIDYNGPLFMIHRPLVTSAMVGLVLGDFTQGVLIGSALELTWLGVTGIGGYTPPDTISGAIIGTAFGILSGQGETAGIAIAVPIAVATQQLDVLAKTLDVYFVKKADNDAKNGDYSKIGFYHYSSLVLITLFKIVPIFLAIMLGGEYVADLFAKVPPIVMQGLNSAGALLPSIGFGMLLNMMLKKNMWVFLLIGFICSVYGGMSTIGISLVGIAVAYFYDMIGSKPQETTSSSDVEEDLDL | failed
MKVINVDVAIIGTGTAGMGAYRAAKKHTDKVVLIEGGAYGTTCARVGCMPSKLLIAAADASYHASQTDLFGIQVDRISVNGKAVMKRIQTERDRFVGFVVESVESFDEQDKIRGFAKFLDEHTLQVDDHSQVIAKRIVIATGSRPNYPEFLAAAGSRLLTNDNLFELNDLPKSVAVFGPGVIGLELGQALSRLGVIVKVFGRSGSVANLQDEEMKRYAEKTFNEEFYFDAKARVISTIEKEDAVEVIYFDKSGQKTTESFQYVLAATGRKANVDKLGLENTSIELDKKNSPLFDELTLQTSVDHIFVAGDANNTLTLLHEAADDGKVAGTNAGAYPVIAQGQRRAPLSVVFTEPQVASVGLSLRQIEDLYADQDAANYVVGQVSFEGQGRSRVMGKNKGLLNVYADRTSGEFLGAEMFGPAAEHIGHLLAWARQQQMTVQAMLTMPFYHPVIEEGLRTALRDAQQKLAIEKHDMNEFIMTHDNAMKLVI | not failed
MASKMDTETHYSDVWVVIPAFNEAAVIGKVVTDVRSVFDHVVCVDDGSTDGTGDIARRSGAHLVRHPINLGQGAAIQTGIEYARKQPGAQVFATFDGDGQHRVKDVAAMVDRLGAGDVDVVIGTRFGRPVGKASASRPPLMKRIVLQTGARLSRRGRRLGLTDTNNGLRVFNKTVADGLNITMSGMSHATEFIMLIAENHWRVAEEPVEVLYTEYSKSKGQPLLNGVNIIFDGFLRGRMPR | failed
METLSDVFATFSQRGDTTAFVHRTGVRRYVFTYLDLHALSLRMNRWLADQGVGEGDRVVLWGPNSPWWAVAFWGIVTRGAVAVPVDFMSGAERAEIIAGLTDAKLVIQSRDKLEHHHHHH | not failed
MSFVECPYHSPAERLVAEADEGGPSAITGMGLCFRCLLFSFSGRSGVEGGRVDLNVFGSLGLQPWIGSSRCWGGPCSSALRCGWFSSWPPPSKSAIPIGGGSRGAGRVSRWPPPHWLEAWRVSPRPLSPLSPATFGRGFIAVAVIPGLWARGRGCSSDRL | failed
MIVCKNRIGTMKRLGRISLRVLLLAGVLLSLLLMAMTLLYPPVEKGGLFFMLAIEVALLFFLGFLYNKVVLPIRAVGDGMDMLRSQDYATTLAPVGQPDADRVVELYNALMHSLKKERLRLEERDNFLSLVMDVSPVGFVVLDFDMRVVSVNPAARRLLDLPDDYIPIERPLEEVCAKIPFGPDELGEGESRTWRLPTAEVRRITRMRFFDRSFSRLFFSIETLTEELHSAEKEAYEKLIRLIAHEVNNSTAGIIGVLNAVGDAFDDTPHTPEGEVSEAIALCRDRCMAMSRFITRFAEVVKLPDPTLSSVDLVPLCERCILLMQPLAVETGVKMKMCKEQDSCLVRCDAEQIEQVVINLLRNAIESFAQQNDLAVSATKTVLLCLDRHNLLVEDNGQPISDDVATRLFTPFFSTKPNGQGIGLVVIREVLTRHGWSFSLTTDADGRTRFRMAWP | failed
MRHLPYPLLGLFLALSSTGAALAGEQYYPLDKGSAPYAVAPSAQGAVWYGADGGHSLGRLDPTSGESVQVPLGEGARPRAIVSDESGNAWVLDSGLNAILRIGGERLGSERFPLPAKAAPAGLESAVFDDDGRLWFTGSRGFHGRLDPARRLVEVWPSPQGKAANGICVTPDGEVWYAQDDALVHVDPLDGSAERLPAPEGTKALRGIGADSIGRLWASDSGGARLYRYDPSDASWQSWPLPDSQARPDSLRVDAMDRVWLHDAASGALLRFDSEQATFRVLPSDRPAPGNALLGGRPGETWSAEPAADRLRVVRD | failed
MPEWAVILSICGLYLVLVLGLGVWSGRTVSASVDGYVAGDRTLGVIVLYFVLGASVFSSFAFLGAPGWAYSRGAAAFYIIAYGTVGMVPFYFLGPRARQVGEAFGFVTQAEMLAHRYDSRTLSVVLAALSVVAFVPYLTLQMKGAGLLLSTISDGVVPQWLGALAAYGVVLVYVFASGMMAIGWTNTVQGLFMMAVAWFLGLYLPETLHGGIQPMFEAIAASDKAAMLDVPGLAADGSPWSWAGYSSAVIVSAVGFSMWPHLFMRAFTAKSDRTLKLTVVLYPTFQLFLVPILLIGFAGVLAFPGVAPPDTIVPHLLTQIELSPVLVGLVCAGALAASMSSGDAILHAAASIGLRDGIKPLLAAPMTDTRQRQWIRGLVVATSATAYYFAVFSEVGIVALLLGAYGGVAQIFPLVFAAFYWPRATGAGALAGLLAGIGVNTLFLVAPHLRPFPLHEGVYGLAANIAVFLTVSLLTPPHDRDRLRAYTHSDRLAADETVAS | failed
IKKNVFNIFYLFLVLEELKGPVLYIVGTPIGNLEDITYRAIDVLKSVNVIFAEDTRVTSKLLSRYKINKKMISCNAVTENKKISLLLDYLAKGNSVAFVSDAGTPGLSDPGSLLVAAAFREGYKVCPIPGV | failed
MSQSTHQSTDHKRQSQDKNQTHAYAKVWLYFMYYWMIFGIGCYFGQYLPMSWRKPLSLGLLILILATLFIKRARKYGLVISHIYAIIVGLLSYALFTTYLQNLGAEVFYKNIILAIGAFIAFGIIGYFLIKDASSMGKYLFVTLIALIIAGIIGIFINNPIFHTVITIVSLLLFLLYTLYDFNRMKRGQFSPREMGFNLFINLLNIIEDILSLANRFKN | failed
MSPSPLISHRAASADLAGMVRQARQRILLQGNVPGFDVARQIELLHGLAESELGRFLLLYRGLNAEWTHRLVTHQPGSGALAPLERVFYERLPAVLATRERHGHFRRALQRHLRPGCVVASVPCGWMSELLALDYSACPGVQLVGIDYDPEALDGATRLAAGHALAGQITLHRQDAWKLDTREGYDLLTSNGLNIYEPDDARVTELYRRFWQALKPGGALVTSFLTPPPALSPDSPWDMQAIDPHDLQLQQLVFTRLIQPRWNALRTHAQTRAQLEEAGFTDLRFEDDRARLFPTVIARKPA | not failed
MSEPKKHKDAAVDDRAVQPSRRNFLKFGASGIAAATLSTWIPSDGMLQAAPVAPVLPVVEDRDAPAAGEHRIQLKVNGQVHTLNVPANAVLLDVLRDRLQLTGTKKGCDHGQCGACTLLVNGVAINSCLSIAVQHQGDSITTIEGLAENGKLHPVQEAFWEHDAYQCGYCTSGQIMSAVAILKDPNLGSDDASVREAMSGNICRCGAYKNILSAVQSARSKMGAV | failed
MKNFVVKTIANAGALAVAVWLLDKITLTGDSTGKKIGTLIVVALVFGLVNFLVKPIVKVLTFPLFILTLGLITLVVNALMLLLTSWLADKLDLSFHVEGFWTAVVGGLIISVVSWALNVVLPDDKD | failed
MSSERLIYLPLGGAGEIGMNAYVYGYGKPDAERLIVVDMGVAFPDMDGSPGVDLILPDITWLQERRDRIEAVFVTHAHEDHVGAVAHTYEKLGAPVYARAFTANIARRKMAEHGHPEDAVHTVSPWPETVSAGPFKVSFLPISHSIPESSAMVIDTPEGRVIHSGDFKLDETPLVGEAFDPELWAEVSKEGVKALICDSTNVFSQHPGRSEASVGPEITNLVQSAEGMVVATTFASNVARVKTLADAGVRAGRSIVLMGRAMRRMIEAAAETGVLQDFPSVVSPEDARSIPRENLMLLVTGSQGERRAASAQLARGKYQGMEMKEGDLFPFSSKTIPGNEKGVIRIINAFSELGVDVVDDSSGLYHVSGHANRPDLERLSEIVNPQVVIPMHGEHRHLREHVKIAEQNGRTGVLAVNGMMVDLSGNQPKIAEYVETGRTYLDGTVQIGALDGVVRDRIRMALNGHVVVTLIVDEDDEPLGDPWCELKGLPETGRSKASLVDVLEADLGQWLGRADPKTMRDDDKLNEGLRRVVRQTSQDEIGKKPEVSVIVSRLS | failed
MTESIVCHKCQEAITKRMITALGKTWHPEHFLCHHCDEQILDATFNVQSGEPVCNKCFVERYTYTCAGCKKPILEKTICAMGESWHEDCFCCGGACKKPLANQTFYERDGKPYCKKDYEDLFAARCAKCEKPITDSAVLAMNVKWHRDCFRCNKCENPITSQTFTIDGDKPVCPACNC | failed
